From patent US20200207829 come the findings set out here.

One data set has as its target T1, TMt-NLS-dCas9VP64.
T1 chain: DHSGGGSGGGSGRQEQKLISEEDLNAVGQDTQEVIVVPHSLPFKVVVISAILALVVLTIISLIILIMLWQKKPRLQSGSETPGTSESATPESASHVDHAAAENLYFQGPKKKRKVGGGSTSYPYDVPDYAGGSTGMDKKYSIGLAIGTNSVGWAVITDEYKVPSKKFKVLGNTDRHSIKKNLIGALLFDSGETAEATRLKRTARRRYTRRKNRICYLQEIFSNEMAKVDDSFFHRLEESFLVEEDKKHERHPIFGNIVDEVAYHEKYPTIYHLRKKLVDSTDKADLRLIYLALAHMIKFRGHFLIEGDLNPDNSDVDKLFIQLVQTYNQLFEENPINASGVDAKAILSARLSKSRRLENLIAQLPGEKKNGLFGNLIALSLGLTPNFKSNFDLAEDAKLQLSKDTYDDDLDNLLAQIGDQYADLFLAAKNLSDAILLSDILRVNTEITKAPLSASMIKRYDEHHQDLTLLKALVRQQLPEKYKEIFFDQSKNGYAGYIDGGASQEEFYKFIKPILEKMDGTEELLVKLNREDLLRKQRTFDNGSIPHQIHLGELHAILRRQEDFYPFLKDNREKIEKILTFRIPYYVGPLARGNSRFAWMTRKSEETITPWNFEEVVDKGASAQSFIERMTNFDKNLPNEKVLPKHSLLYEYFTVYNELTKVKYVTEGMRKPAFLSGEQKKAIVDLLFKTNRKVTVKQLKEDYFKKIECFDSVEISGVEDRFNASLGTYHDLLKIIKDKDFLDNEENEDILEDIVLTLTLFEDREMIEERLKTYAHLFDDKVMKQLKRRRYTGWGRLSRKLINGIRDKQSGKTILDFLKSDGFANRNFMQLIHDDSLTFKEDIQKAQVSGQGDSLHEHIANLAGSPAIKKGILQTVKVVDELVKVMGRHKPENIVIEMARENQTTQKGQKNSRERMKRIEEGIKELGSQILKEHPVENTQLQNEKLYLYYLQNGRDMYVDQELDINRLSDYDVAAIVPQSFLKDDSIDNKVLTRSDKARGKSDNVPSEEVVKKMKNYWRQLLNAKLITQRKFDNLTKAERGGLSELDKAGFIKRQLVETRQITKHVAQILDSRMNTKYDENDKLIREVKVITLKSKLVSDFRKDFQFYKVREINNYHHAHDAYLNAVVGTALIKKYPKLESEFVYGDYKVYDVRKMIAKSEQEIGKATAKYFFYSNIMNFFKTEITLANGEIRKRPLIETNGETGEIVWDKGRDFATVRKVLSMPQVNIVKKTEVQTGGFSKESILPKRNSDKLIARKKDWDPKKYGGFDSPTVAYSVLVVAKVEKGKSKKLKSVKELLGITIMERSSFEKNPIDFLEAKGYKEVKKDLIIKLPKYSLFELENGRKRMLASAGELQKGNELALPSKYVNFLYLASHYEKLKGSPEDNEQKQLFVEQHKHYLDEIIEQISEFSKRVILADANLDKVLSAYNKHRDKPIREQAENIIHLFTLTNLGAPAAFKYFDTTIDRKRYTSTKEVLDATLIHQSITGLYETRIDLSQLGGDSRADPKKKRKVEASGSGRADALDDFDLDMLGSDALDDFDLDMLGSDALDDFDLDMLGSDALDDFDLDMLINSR

B1: TEV protease (protein)
chain: MHHHHHHHHHGESLFKGPRDYNPISSTICHLTNESDGHTTSLYGIGFGPFIITNKHLFRRNNGTLLVQSLHGVFKVKNTTTLQQHLIDGRDMIIIRMPKDFPPFPQKLKFREPQREERICLVTTNFQTKSMSSMVSDTSCTFPSSDGIFWKHWIQTKDGQCGSPLVSTRDGFIVGIHSASNFTNTNNYFTSVPKNFMELLTNQEAQQWVSGWRLNADSVLWGGHKVFMVKPEEPFQPVKEATQLMNRRRRP
Turning to B1, the “anti-HA immunofluorescence, localisation of dCas9-VP64” value with TMt-NLS-dCas9VP64 is “co-expression of TEV protease resulted in highly efficient release of dCas9-VP64 from the membrane tether and subsequent nuclear localization”. In addition, the EYFP activation score entry with TMt-NESΔTCS-dCas9VP64 is listed as “did not show any activity above baseline levels”.
